# IntAct's records for PubMed 31515488
# B1: Protein LDOC1 (Homo sapiens), O95751 (parent)
# chain: MVDELVLLLHALLMRHRALSIENSQLMEQLRLLVCERASLLRQVRPPSCPVPFPETFNGESSRLPEFIVQTASYMLVNENRFCNDAMKVAFLISLLTGEAEEWVVPYIEMDSPILGDYRAFLDEMKQCFGWDDDEDDDDEEEEDDY
# partner: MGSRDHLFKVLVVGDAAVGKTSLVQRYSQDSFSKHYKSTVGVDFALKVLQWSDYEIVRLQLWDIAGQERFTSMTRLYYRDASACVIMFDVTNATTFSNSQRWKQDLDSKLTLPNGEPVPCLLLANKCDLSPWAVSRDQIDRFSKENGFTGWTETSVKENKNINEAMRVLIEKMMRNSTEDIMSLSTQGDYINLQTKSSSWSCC
# B2: Four and a half LIM domains protein 2 (Homo sapiens), Q14192 (parent)
# chain: MTERFDCHHCNESLFGKKYILREESPYCVVCFETLFANTCEECGKPIGCDCKDLSYKDRHWHEACFHCSQCRNSLVDKPFAAKEDQLLCTDCYSNEYSSKCQECKKTIMPGTRKMEYKGSSWHETCFICHRCQQPIGTKSFIPKDNQNFCVPCYEKQHAMQCVQCKKPITTGGVTYREQPWHKECFVCTACRKQLSGQRFTARDDFAYCLNCFCDLYAKKCAGCTNPISGLGGTKYISFEERQWHNDCFNCKKCSLSLVGRGFLTERDDILCPDCGKDI
# partner: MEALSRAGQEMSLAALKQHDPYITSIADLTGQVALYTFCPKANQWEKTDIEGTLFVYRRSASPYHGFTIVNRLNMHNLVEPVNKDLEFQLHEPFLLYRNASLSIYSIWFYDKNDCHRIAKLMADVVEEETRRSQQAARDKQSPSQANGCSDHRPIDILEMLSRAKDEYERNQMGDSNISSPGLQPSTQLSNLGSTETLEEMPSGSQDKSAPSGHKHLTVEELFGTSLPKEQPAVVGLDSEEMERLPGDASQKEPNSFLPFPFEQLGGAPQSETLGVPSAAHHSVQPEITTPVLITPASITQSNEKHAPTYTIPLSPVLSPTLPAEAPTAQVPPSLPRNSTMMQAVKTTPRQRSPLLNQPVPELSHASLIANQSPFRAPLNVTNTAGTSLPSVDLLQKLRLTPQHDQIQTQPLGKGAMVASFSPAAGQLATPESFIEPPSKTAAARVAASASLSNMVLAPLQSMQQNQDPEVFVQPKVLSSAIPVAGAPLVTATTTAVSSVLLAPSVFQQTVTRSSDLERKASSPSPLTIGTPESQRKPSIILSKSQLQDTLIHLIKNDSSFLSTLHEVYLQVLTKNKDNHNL
# B3: Programmed cell death 6-interacting protein (Homo sapiens), Q8WUM4 (parent)
# chain: MATFISVQLKKTSEVDLAKPLVKFIQQTYPSGGEEQAQYCRAAEELSKLRRAAVGRPLDKHEGALETLLRYYDQICSIEPKFPFSENQICLTFTWKDAFDKGSLFGGSVKLALASLGYEKSCVLFNCAALASQIAAEQNLDNDEGLKIAAKHYQFASGAFLHIKETVLSALSREPTVDISPDTVGTLSLIMLAQAQEVFFLKATRDKMKDAIIAKLANQAADYFGDAFKQCQYKDTLPKEVFPVLAAKHCIMQANAEYHQSILAKQQKKFGEEIARLQHAAELIKTVASRYDEYVNVKDFSDKINRALAAAKKDNDFIYHDRVPDLKDLDPIGKATLVKSTPVNVPISQKFTDLFEKMVPVSVQQSLAAYNQRKADLVNRSIAQMREATTLANGVLASLNLPAAIEDVSGDTVPQSILTKSRSVIEQGGIQTVDQLIKELPELLQRNREILDESLRLLDEEEATDNDLRAKFKERWQRTPSNELYKPLRAEGTNFRTVLDKAVQADGQVKECYQSHRDTIVLLCKPEPELNAAIPSANPAKTMQGSEVVNVLKSLLSNLDEVKKEREGLENDLKSVNFDMTSKFLTALAQDGVINEEALSVTELDRVYGGLTTKVQESLKKQEGLLKNIQVSHQEFSKMKQSNNEANLREEVLKNLATAYDNFVELVANLKEGTKFYNELTEILVRFQNKCSDIVFARKTERDELLKDLQQSIAREPSAPSIPTPAYQSSPAGGHAPTPPTPAPRTMPPTKPQPPARPPPPVLPANRAPSATAPSPVGAGTAAPAPSQTPGSAPPPQAQGPPYPTYPGYPGYCQMPMPMGYNPYAYGQYNMPYPPVYHQSPGQAPYPGPQQPSYPFPQPPQQSYYPQQ
# B4: Notch homolog 2 N-terminal-like protein A (Homo sapiens), Q7Z3S9 (parent)
# chain: MCVTYHNGTGYCKCPEGFLGEYCQHRDPCEKNRCQNGGTCVAQAMLGKATCRCASGFTGEDCQYSTSHPCFVSRPCLNGGTCHMLSRDTYECTCQVGFTGKECQWTDACLSHPCANGSTCTTVANQFSCKCLTGFTGQKCETDVNECDIPGHCQHGGTCLNLPGSYQCQCLQGFTGQYCDSLYVPCAPSPCVNGGTCRQTGDFTFECNCLPETVRRGTELWERDREVWNGKEHDEN
# partner: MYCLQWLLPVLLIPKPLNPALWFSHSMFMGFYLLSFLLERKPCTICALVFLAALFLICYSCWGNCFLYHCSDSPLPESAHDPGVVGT
# Variants of: B1
# Settings: with rab7l_human RAB29, O14966
row,Variant,effect of a mutation on the interaction
1,L12H,disrupting interaction strength

# Variants of: B2
# Settings: with dcp1a_human DCP1A
row,Variant,effect of a mutation on the interaction
1,MTERFDCHHCNESLFGKKYILREESPYCVVCFETLFSNTCEECGKPIGCDCKDLSYKDRHWHEACFHCSQCRNSLVDKPFAAKEDQLLCTDCYSNEYSSKCQECKKTIMPGTRKMEYKGSSWHETCFICHRCQQPIGTKSFIPKDNQNFCVPCYEKQHAMQCVQCKKPITTGGVTYREQPWHKECFVCTACRKQLSGQRFTARDDFAYCLNCFCDLYAKKCAGCTNPISGLGGTKYISFEERQWHNDCFNCKKCSLSLVGRGFLTERDDILCPDCGKDI [A37S],with no effect
2,MTERFDCHHCNESLFGKKYILREESPYCVVCFETLFANTCEECGKPIGCDCKDLSYKDRHWHEACFHCSQCRNSLVDKPFAAKEDQLLCTDCYSKEYSSKCQECKKTIMPGTRKMEYKGSSWHETCFICHRCQQPIGTKSFIPKDNQNFCVPCYEKQHAMQCVQCKKPITTGGVTYREQPWHKECFVCTACRKQLSGQRFTARDDFAYCLNCFCDLYAKKCAGCTNPISGLGGTKYISFEERQWHNDCFNCKKCSLSLVGRGFLTERDDILCPDCGKDI [N95K],with no effect

# Variants of: B3
# Settings: with pdcd6_human PDCD6, O75340
# Sequence of pdcd6_human PDCD6, O75340 (O75340 whole entry): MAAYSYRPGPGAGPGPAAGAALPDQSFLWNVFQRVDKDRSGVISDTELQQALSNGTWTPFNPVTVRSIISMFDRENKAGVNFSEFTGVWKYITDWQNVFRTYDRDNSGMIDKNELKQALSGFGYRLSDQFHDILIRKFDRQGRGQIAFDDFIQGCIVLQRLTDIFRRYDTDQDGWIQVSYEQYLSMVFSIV
row,Variant,effect of a mutation on the interaction
1,G778A,with no effect
2,G429S,with no effect
3,A309T,with no effect
4,N550S,with no effect
5,S730L,with no effect

# Variants of: B4
# Settings: with blcap_human BLCAP
row,Variant,effect of a mutation on the interaction
1,A115T,with no effect
2,R74Q,with no effect
